Results as given in publication PMC10450202, “Updated protein domain annotation of the PARP protein family sheds new light on biological function”.

Legend:
PARP14 WWE-ART = biological target: T1, PARP14 WWE-ART (human, UniProt Q460N5 1459-1801); assay: EMSA; 0.5 uM RNA, 1-5 uM protein, 5 mM Mg2+; EMSA: 20 mM HEPES-KOH pH 7.6, 5 mM MgCl2, 1 mM DTT, 20% glycerol, 1 h room temperature, 6% native PAGE; NMR: 10 mM sodium phosphate, 222 mM NaCl, 2.7 mM KCl, 2; settings: protein: recombinant; label: 5' Cy3; single strand
T1 sequence: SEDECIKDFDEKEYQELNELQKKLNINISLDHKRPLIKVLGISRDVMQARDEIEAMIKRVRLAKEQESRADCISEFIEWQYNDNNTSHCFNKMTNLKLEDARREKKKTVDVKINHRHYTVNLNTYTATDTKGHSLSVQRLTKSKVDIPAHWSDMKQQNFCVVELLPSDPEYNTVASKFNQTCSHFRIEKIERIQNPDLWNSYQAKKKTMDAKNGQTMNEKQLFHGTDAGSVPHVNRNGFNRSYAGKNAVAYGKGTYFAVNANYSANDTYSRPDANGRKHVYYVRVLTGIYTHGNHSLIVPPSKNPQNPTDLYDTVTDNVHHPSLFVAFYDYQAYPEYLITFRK

PARP14 KH1-KH2 = biological target: T2, PARP14 KH1-KH2 (human, UniProt Q460N5 316-468); assay: EMSA; 0.5 uM RNA, 1-5 uM protein, 5 mM Mg2+; efficient binding at micromolar concentrations; EMSA: 20 mM HEPES-KOH pH 7.6, 5 mM MgCl2, 1 mM DTT, 20% glycerol, 1 h room temperature, 6% native PAGE; NMR: 10 mM sodium phosphate, 222 mM NaCl, 2.7 mM KCl, 2; settings: protein: recombinant; label: 5' Cy3; single strand
T2 sequence: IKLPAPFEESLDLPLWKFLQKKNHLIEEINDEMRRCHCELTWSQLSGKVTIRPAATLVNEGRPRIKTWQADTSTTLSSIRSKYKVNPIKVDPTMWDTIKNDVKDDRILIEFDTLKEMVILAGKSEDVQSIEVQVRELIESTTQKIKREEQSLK

PARP14 KH8-WWE-ART = biological target: T3, PARP14 KH8-WWE-ART (human, UniProt Q460N5 1453-1801); assay: EMSA; 0.5 uM RNA, 1-5 uM protein, 5 mM Mg2+; possible slight nuclease contamination; EMSA: 20 mM HEPES-KOH pH 7.6, 5 mM MgCl2, 1 mM DTT, 20% glycerol, 1 h room temperature, 6% native PAGE; NMR: 10 mM sodium phosphate, 222 mM NaCl, 2.7 mM KCl, 2; settings: protein: recombinant; label: 5' Cy3; single strand
T3 sequence: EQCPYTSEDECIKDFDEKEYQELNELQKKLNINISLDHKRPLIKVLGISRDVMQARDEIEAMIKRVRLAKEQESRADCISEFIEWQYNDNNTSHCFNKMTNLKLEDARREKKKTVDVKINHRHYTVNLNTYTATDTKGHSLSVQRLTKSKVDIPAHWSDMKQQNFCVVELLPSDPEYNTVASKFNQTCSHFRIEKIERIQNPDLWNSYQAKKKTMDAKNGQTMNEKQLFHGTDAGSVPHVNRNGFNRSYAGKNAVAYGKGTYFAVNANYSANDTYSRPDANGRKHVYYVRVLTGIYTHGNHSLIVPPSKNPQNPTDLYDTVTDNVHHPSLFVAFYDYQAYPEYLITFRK

PARP1 full-length = PARP1 full-length (human, UniProt P09874 2-1014, V762A); assay: NMR; 35.5 uM protein, 40 uM DNA; 15N-1H TROSY, 25 C; EMSA: 20 mM HEPES-KOH pH 7.6, 5 mM MgCl2, 1 mM DTT, 20% glycerol, 1 h room temperature, 6% native PAGE; NMR: 10 mM sodium phosphate, 222 mM NaCl, 2.7 mM KCl, 2; settings: protein: recombinant; tags: N-terminal His6 (MKHHHHHHKMQ); dumbbell: two hairpins, mimics single-strand break
PARP1 full-length, sequence (P09874 2-1014 V762A): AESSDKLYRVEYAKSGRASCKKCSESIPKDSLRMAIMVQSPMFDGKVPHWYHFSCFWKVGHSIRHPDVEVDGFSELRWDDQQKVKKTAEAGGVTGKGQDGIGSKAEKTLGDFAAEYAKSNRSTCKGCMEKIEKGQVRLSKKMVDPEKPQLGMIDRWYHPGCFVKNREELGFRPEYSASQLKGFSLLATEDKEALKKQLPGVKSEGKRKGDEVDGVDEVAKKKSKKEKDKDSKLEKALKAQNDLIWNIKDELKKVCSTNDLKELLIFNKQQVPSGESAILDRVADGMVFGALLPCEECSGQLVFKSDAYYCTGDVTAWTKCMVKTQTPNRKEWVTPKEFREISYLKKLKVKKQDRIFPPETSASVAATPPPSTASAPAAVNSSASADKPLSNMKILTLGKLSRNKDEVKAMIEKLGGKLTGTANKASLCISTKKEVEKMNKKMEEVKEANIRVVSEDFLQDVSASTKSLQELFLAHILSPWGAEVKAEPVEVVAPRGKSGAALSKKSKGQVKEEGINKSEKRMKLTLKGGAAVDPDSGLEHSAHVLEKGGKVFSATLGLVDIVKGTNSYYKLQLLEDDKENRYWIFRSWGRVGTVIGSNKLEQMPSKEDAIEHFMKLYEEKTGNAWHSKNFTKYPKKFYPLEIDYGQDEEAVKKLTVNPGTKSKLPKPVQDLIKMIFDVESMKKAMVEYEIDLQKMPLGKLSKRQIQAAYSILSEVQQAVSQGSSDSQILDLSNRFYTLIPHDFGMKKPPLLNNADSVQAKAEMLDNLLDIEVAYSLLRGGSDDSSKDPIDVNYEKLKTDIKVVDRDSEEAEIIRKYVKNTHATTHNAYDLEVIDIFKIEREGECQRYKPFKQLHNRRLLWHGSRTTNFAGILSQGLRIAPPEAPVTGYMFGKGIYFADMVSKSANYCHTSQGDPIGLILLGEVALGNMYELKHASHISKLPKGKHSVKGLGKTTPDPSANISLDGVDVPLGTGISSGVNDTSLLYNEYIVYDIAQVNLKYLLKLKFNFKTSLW

## GUGGCGCGGAGACUUAGAGAA (ssRNA) [E21 RNA]
PARP14 WWE-ART
  binding result: no binding
PARP14 KH1-KH2
  binding result: binds
PARP14 KH8-WWE-ART
  binding result: binds

## GCTGGCTTCGTAAGAAGCCAGCTCGCGGTCAGCTTGCTGACCGCG (structured_DNA, 5' phosphate) [45-nt DNA dumbbell]
PARP1 full-length
  binding result: binds
